In the supplement of paper PMC9170038:

System: MS2 coat protein
Assay: apparent KD of MS2 coat protein; designed switch direction (-1 OFF switch, 1 ON switch): -1; higher = weaker reporter binding
Procedure, shortened: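 Designed RNA switches with common flanks were transcribed on Illumina chips by stalled E. coli RNA polymerase and titrated with SNAP-549-labelled MS2 coat protein, from 0.7 or 1.5 nM doubling to 3 µM, in Tris-HCl pH 7.5 buffer with KCl, MgCl2, BSA, DTT, tRNA and Tween-20. Steps lasted 0.8–1.5 h (lowest) to 10–20 min (highest). Titrations ran without input, with 200 uM small-molecule ligand, or with an oligonucleotide input. Normalised cluster fluorescence was curve-fitted, and apparent KD is the per-design median over clusters.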

[1] = Eterna round: R95, input ligand: FMN 200 uM
[2] = Eterna round: R95, input ligand: microRNA oligo, concentration not stated
[3] = Eterna round: R95, input ligand: none
[4] = input ligand: microRNA oligo, concentration not stated

Sequence | apparent KD of MS2 coat protein [1] [nM] | apparent KD of MS2 coat protein [2] [nM] | apparent KD of MS2 coat protein [3] [nM] | apparent KD of MS2 coat protein (input ligand: FMN 200 uM) [nM] | apparent KD of MS2 coat protein (input ligand: none) [nM] | apparent KD of MS2 coat protein [4] [nM]
AAAUAACAAGCAAGAUCCUACAUGAGGAUCACCCAUGUGCUCGUCUUGUAAAGUACUAUCACGAAAGUGAUAGUACA [Sensor 3, v1 - 12] (puzzle: Sensor v3, turn-off variant 1) | 23.4 | 219 | 23 |  |  | 
AUGAGGUUAGGAUAUACAUGAGGAUCACCCAUGUUGAAAGGUUAGAUAGGCGAAGAUGGUAGAAGGAACAAAGA [JR_Exclu3_Sub054] (puzzle: Exclusion 3) | 29.4 | 38.2 | 43.9 |  |  | 
GAGUUAGCGUGAGGAAUAUACAUGAGGAUCACCCAUGUUAGCAAAUAUAUUGCUCGUCUUAUAACAACAAUUAACUC [Alarm 9 - Jieux - Sensor, turn-off variant 1] (Eterna round: R97, puzzle: Sensor, turn-off variant 1) |  |  |  | 13.6 | 14.3 | 
CUUUUGUGAGGAUAUCAGUAGUAAUACAAUAGUAUUACUACUGAGAAGGCACAUGAGGAUCACCCAUGUUUCUC [Ex4 344 Omei mod 3] (puzzle: Exclusion 4) |  | 39.8 |  |  |  | 
UAGCAUUGCCAAAGGUAGUGCUUUACAUGAGGAUCACCCAUGUAGGAUAUGGUAGGCAAAGCUUACCAGAAGGACAUGAUAAUU [Mat - Exclusion NG 3 - Mod of JL - D12] (Eterna round: R96, puzzle: Exclusion NG 3) |  |  |  | 167 | 56.1 | 45.1
GCAAGCUUUUUGGUUUUCAACAUGAGGAUCACCCAUGUUCGUCUUGUGCUCGGGCUUGGGCGGUGUCCGGGUUUGGG [Default title] (Eterna round: R97, puzzle: Sensor, turn-off variant 1) |  |  |  | 45.8 | 48.5 | 
GACCAGGAAGGAUAUACAUACGGUUCGUGCCUUGGGCUGCGACAUGAGGAUCACCCAUGUAGAAGGUCCAGGUC [EX2 B.18] (Eterna round: R97, puzzle: Exclusion 2) |  |  |  | 47.1 | 18.6 | 
AGCUAGUCAGUAGGAUAUGUAGGAUAUGUGGUUGAGGUUCACCCAACCACAUCAACGACAGAAGGACAGAAGGACUGGUUAGCA [pwkr exNG2 2xFMN 1xF5.5] (Eterna round: R96, puzzle: Exclusion NG 2) |  |  |  | 2320 | 2810 | 1210
UAUUAGCAAGCGAGAUCCCACAUGAGGAUCACCCAUGUGCUCGUGCAUCCAGAAUUACUGGGUGCUGCUCGUCUUAU [Winner reversed engineered 13] (Eterna round: R97, puzzle: Sensor, turn-off variant 1) |  |  |  | 15.2 | 14.8 | 
AUGAGGUUAGGAUAUACAUGAGGAUCACCCAUGUUGAAAGGUUAGAUAGGCGAAGCUGGUAGAAGGAACGGAGC [JR_Exclu3_Sub055] (puzzle: Exclusion 3) | 27.9 | 29.8 | 32.8 |  |  | 
ACAAAGCGAGGAUAUACACAGGUGUCCUGGGCGUCAAAUCGACAUGAGGAUCACCCAUGUAGAAGGCGCAAUAG [Diedated] (Eterna round: R97, puzzle: Exclusion 2) |  |  |  | 44.9 | 36.9 | 
AUCUUUGCUCGUCAAAUUUACAUGAGGAUCACCCAUGUCUACCUGAGUGCGUCGGGACUGUACGUCAGCCGGUGGAA [Eternabot (L2) Solution 15] (Eterna round: R97, puzzle: Sensor, turn-off variant 1) |  |  |  | 23.3 | 25 | 
UACACCACAUGAGGAUCAAACAUGAGGAUCACCCAUGUGUAGCAAGCUUUUUGCUCGUCUUAUAAAUAUGUGGUGUA [Electric Eye 7 - Jieux - Sensor, turn-off variant 1] (Eterna round: R97, puzzle: Sensor, turn-off variant 1) |  |  |  | 11.7 | 11.9 | 
GUAAUUCGAGGAUAUGCCCAUCUAAACAUGAGGAUCACCCAUGUGCGCAUGUUUACCAUCGCAGAAGGCGAGCUGC [Eternabot (L1) Solution 31] (Eterna round: R97, puzzle: Exclusion 5) |  |  |  | 39.3 | 25.5 | 
GUCAGCUCGUGAGGAUAUACAUGAGGAUCACCCAUGUGAUCAAUAGCAGCUUCGGCUGCAUUAAUGUAGAAGGUACGAGCUGAU [ENG2/5-C2] (Eterna round: R96, puzzle: Exclusion NG 2) |  |  |  | 105 | 463 | 231
GGCAUGUAAGGAUAUCUAUCGGUGAGAAAACCAAUUGGGCAAGAGAAGGUACAUGAGGAUCACCCAUGUGGACC [Eternabot (L1) Solution 9] (Eterna round: R97, puzzle: Exclusion 4) |  |  |  | 135 | 44 | 
GGUGGCUACGUGAGACAUGAGGAUCACCCAUGUUACCGAACGAAGGAUAUAGAAGCACAUAGCUACUAGAAGGUUGAAAAGAAA [Laeratveti] (Eterna round: R96, puzzle: Exclusion NG 3) |  |  |  | 22.6 | 29.9 | 24.1
ACAAGCUUUUUGUUCGUCUUAUACACUCCUAAUAAGACAACAUGAGGAUCACCCAUGUAACAAACACGAACUCAUGU [Sesor Array 7 - Jieux - Sensor v3, turn-off variant 2] (puzzle: Sensor v3, turn-off variant 2) | 174 | 369 | 195 |  |  | 
GGAUUGCGGCAAGGAUAUCUUUGUCAACAUAAAACAUGAGGAUCACCCAUGUGCAUCUUCGUGUGAGAGAAGGUGCGGCGAUCC [Geceretima] (Eterna round: R96, puzzle: Exclusion NG 2) |  |  |  | 1620 | 180 | 248
CCGGGCCCGGGAGGAUAUACAUGAGGAUCACCCAUGUGGGCCCGGGCCCGCGGGCCCGGGCCCGUGUAGAAGGCCCGGGCCCGG [-64.8, -63.2 kcal, A 14%] (Eterna round: R96, puzzle: Exclusion NG 2) |  |  |  | 27.2 | 19.9 | 5.13
UUUAAUCGUGACAUGGGUGACAUGAGGAUCACCCAUGUCACAAGCUUCUUGCUCGUCUUAUAAUUAACCCAUGUCAC [LRO Sensor-off var1-12 mod of Stov1-13-A1 by Brourd] (Eterna round: R97, puzzle: Sensor, turn-off variant 1) |  |  |  | 18.8 | 18.3 | 
GAUUACCUAACAAGUAAGCACAUGAGGAUCACCCAUGUGGAGGGUCAUGUCAUGCUCAAGAUGCUCGUCAUUUCUAG [Eternabot (L2) Solution 38] (Eterna round: R97, puzzle: Sensor, turn-off variant 1) |  |  |  | 180 | 193 | 
UUUUUGUCAGGAUAUGAUUAGAUCUACUUCGGUAGAUCUAAUCAGAAGGGACAUGAGGAUCACCCAUGUAGUUU [Mod of Brourd - Jieux - Exclusion 4] (Eterna round: R97, puzzle: Exclusion 4) |  |  |  | 311 | 55.8 | 
ACGAAACAUGAGGAUCACCCAUGUGAGGAUAUGUAAAUACUAGACAAAUAACAGAAAAACAGAAGGCACUCAGA [JR_Exclusion1_Sub003] (puzzle: Exclusion 1) |  | 22 |  |  |  | 
